The series has as its target Polθ-HLD (DNA polymerase theta helicase domain) (Homo sapiens, UniProt O75417 67-894). The experiment in a line: fluorescence polarization; low salt, 50 mM NaCl; stated as single digit nM; 10 mM HEPES pH 7.5, 150 mM NaCl (low salt: 50 mM NaCl), 10 nM probe; temperature not stated in material. Particulars: protein: recombinant; tags: His6 tag cleaved with TEV; chain copies: 4; label: 5' fluorescein (FITC); single strand.

The values below come from PMC4671958, “Structure of the Helicase Domain of DNA Polymerase Theta Reveals a Possible Role in the Microhomology-Mediated End-Joining Pathway”.

Polθ-HLD (DNA polymerase theta helicase domain), sequence (O75417 67-894): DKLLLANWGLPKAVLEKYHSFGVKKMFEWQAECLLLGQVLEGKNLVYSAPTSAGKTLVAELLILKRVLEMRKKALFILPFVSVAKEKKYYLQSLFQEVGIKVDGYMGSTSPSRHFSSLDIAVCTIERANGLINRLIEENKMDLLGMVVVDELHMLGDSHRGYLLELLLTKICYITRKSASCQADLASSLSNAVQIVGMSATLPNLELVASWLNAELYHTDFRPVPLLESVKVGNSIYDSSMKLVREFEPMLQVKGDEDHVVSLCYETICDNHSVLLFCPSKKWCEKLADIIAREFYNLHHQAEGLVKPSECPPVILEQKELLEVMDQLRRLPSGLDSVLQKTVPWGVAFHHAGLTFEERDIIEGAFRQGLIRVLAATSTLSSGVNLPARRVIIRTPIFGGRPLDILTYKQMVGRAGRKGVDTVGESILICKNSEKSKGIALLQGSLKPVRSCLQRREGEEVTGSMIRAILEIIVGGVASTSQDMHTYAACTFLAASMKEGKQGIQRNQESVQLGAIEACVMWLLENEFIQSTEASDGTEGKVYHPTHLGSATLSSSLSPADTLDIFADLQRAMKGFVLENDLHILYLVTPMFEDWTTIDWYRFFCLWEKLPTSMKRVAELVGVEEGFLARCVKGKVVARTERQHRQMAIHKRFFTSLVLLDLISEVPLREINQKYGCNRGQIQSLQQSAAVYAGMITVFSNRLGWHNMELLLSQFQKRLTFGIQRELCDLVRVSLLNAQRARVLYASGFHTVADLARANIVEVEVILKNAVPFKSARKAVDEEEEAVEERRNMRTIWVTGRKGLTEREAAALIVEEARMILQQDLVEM

B1: Single stranded (POLQ-1) (ssDNA)
DNA: ATCGATAGTCGGATCCTCTAGACAGCTCCATGTAGCAAGGCACTGGTAGAATTCGGCAGCGTC
Consider B1, for which the dissociation constant (Kd) is under 10 nM.
